How the values were obtained:
VEGF [1] = molecular target: T1, VEGF (UniProt P15692-4 27-191, limits assumed); assay: VEGFR1 blocking ELISA: antibody pre-incubated with VEGF, added to a VEGFR1-coated plate
T1 construct: also called VEGF-A; vascular endothelial growth factor

VEGF [2] = molecular target: T1, VEGF; assay: Biacore SPR, both antibodies tested under the same conditions
Description: (§1) Data was fit with a bivalent model for affinity determination.

VEGF [3] = molecular target: T1, VEGF; assay: summary table of MAb7392 characterization; affinity by Biacore, rounded form of the value in Table 2; summary Table 6, rounded value
Description: as §1

VEGF [4] = molecular target: T1, VEGF; assay: VEGFR2 blocking ELISA: antibody pre-incubated with VEGF, added to a VEGFR2-coated plate
VEGF [5] = molecular target: T1, VEGF; assay: Biacore SPR, VEGF immobilized on the chip, antibody as analyte, bivalent model fit
Description: as §1

VEGF [6] = molecular target: T1, VEGF; assay: competition ELISA: titrated antibody and biotinylated bevacizumab added to a VEGF-coated plate, bound biotinylated bevacizumab detected with Strep-HRP; competitor: biotinylated bevacizumab

T1 sequence (P15692 other isoform, or with tags, fused parts or gaps limits assumed): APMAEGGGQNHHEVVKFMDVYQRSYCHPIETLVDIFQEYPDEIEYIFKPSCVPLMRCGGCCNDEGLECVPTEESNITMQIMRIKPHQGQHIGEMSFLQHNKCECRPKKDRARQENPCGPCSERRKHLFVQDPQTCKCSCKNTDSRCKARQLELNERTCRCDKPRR

B1: MAb7392 (antibody, V domains shown)
VH: QVQLVQSGAELRKPGASVKISCKASGYSLTYYGMNWVRQAPGQGLEWMGWINTFTGDSTYAQDFTGRFVFSLDTSVSTAYLQISSLKAEDMAMYYCAKYPHYYGSSHWYFDVWGQGTTVTVSS
VL: EIVLTQSPATLSVSPGERATLSCRASQSVNSNLAWYQQKPGQAPRVLIYGASTRATGIPARFSGSGSGTEFTLTISSLQSEDFAVYYCQQYSDIPWTFGQGTKLEIK
notes: also called H7230 + L7104
IC50 (VEGF [1]): 0.08 nM | fold better affinity than bevacizumab (VEGF [2]): ~4 fold | Kd (VEGF [3]): 0.9 nM | IC50 (VEGF [4]): 0.18 nM | Kd (VEGF [5]): 0.91 nM | IC50 (read off the curve) (VEGF [6]): ~0.6 nM

From US20130202615A1 (VACCINEX, published 2013)
